Reference: patent US20080219983A1 (TRIMESTER CUSHION, published 2008)
One block for each molecule: values may come before it.

B1: Plasma-derived FVIII light chain (other, UniProt P00451 1668-2351, looked up)
chain: EITRTTLQSDQEEIDYDDTISVEMKKEDFDIYDEDENQSPRSFQKKTRHYFIAAVERLWDYGMSSSPHVLRNRAQSGSVPQFKKVVFQEFTDGSFTQPLYRGELNEHLGLLGPYIRAEVEDNIMVTFRNQASRPYSFYSSLISYEEDQRQGAEPRKNFVKPNETKTYFWKVQHHMAPTKDEFDCKAWAYFSDVDLEKDVHSGLIGPLLVCHTNTLNPAHGRQVTVQEFALFFTIFDETKSWYFTENMERNCRAPCNIQMEDPTFKENYRFHAINGYIMDTLPGLVMAQDQRIRWYLLSMGSNENIHSIHFSGHVFTVRKKEEYKMALYNLYPGVFETVEMLPSKAGIWRVECLIGEHLHAGMSTLFLVYSNKCQTPLGMASGHIRDFQITASGQYGQWAPKLARLHYSGSINAWSTKEPFSWIKVDLLAPMIIHGIKTQGARQKFSSLYISQFIIMYSLDGKKWQTYRGNSTGTLMVFFGNVDSSGIKHNIFNPPIIARYIRLHPTHYSIRSTLRMELMGCDLNSCSMPLGMESKAISDAQITASSYFTNMFATWSPSKARLHLQGRSNAWRPQVNNPKEWLQVDFQKTMKVTGVTTQGVKSLLTSMYVKEFLISSSQDGHQWTLFFQNGKVKVFQGNQDSFTPVVNSLDPPLLTRYLRIHPQSWVHQIALRMEVLGCEAQDLY
notes: domain: light chain (a3-A3-C1-C2); Prepared from plasma as in the cited literature; Human by context (the peptides are said to cover human FVIII regions); Residue numbers count on mature FVIII, without the signal peptide; also called LCh; 80-kDa light chain (a3-A3-C1-C2)
B2: Recombinant LRP cluster II (receptor, UniProt Q07954 805-1184, looked up)
chain: NKCRVNNGGCSSLCLATPGSRQCACAEDQVLDADGVTCLANPSYVPPPQCQPGEFACANSRCIQERWKCDGDNDCLDNSDEAPALCHQHTCPSDRFKCENNRCIPNRWLCDGDNDCGNSEDESNATCSARTCPPNQFSCASGRCIPISWTCDLDDDCGDRSDESASCAYPTCFPLTQFTCNNGRCININWRCDNDNDCGDNSDEAGCSHSCSSTQFKCNSGRCIPEHWTCDGDNDCGDYSDETHANCTNQATRPPGGCHTDEFQCRLDGLCIPLRWRCDGDTDCMDSSDEKSCEGVTHVCDPSVKFGCKDSARCISKAWVCDGDNDCEDNSDEENCESLACRPPSHPCANNTSVCLPPDKLCDGNDDCGDGSDEGELCDQ
notes: domain: cluster II

Tests used:
[1] = target: Purified placenta-derived low-density lipoprotein receptor-related protein (LRP) (UniProt Q07954); experiment: SPR, immobilised LRP, two-site model, site class 1
Purified placenta-derived low-density lipoprotein receptor-related protein (LRP), sequence (Q07954 20-4544, form in doubt): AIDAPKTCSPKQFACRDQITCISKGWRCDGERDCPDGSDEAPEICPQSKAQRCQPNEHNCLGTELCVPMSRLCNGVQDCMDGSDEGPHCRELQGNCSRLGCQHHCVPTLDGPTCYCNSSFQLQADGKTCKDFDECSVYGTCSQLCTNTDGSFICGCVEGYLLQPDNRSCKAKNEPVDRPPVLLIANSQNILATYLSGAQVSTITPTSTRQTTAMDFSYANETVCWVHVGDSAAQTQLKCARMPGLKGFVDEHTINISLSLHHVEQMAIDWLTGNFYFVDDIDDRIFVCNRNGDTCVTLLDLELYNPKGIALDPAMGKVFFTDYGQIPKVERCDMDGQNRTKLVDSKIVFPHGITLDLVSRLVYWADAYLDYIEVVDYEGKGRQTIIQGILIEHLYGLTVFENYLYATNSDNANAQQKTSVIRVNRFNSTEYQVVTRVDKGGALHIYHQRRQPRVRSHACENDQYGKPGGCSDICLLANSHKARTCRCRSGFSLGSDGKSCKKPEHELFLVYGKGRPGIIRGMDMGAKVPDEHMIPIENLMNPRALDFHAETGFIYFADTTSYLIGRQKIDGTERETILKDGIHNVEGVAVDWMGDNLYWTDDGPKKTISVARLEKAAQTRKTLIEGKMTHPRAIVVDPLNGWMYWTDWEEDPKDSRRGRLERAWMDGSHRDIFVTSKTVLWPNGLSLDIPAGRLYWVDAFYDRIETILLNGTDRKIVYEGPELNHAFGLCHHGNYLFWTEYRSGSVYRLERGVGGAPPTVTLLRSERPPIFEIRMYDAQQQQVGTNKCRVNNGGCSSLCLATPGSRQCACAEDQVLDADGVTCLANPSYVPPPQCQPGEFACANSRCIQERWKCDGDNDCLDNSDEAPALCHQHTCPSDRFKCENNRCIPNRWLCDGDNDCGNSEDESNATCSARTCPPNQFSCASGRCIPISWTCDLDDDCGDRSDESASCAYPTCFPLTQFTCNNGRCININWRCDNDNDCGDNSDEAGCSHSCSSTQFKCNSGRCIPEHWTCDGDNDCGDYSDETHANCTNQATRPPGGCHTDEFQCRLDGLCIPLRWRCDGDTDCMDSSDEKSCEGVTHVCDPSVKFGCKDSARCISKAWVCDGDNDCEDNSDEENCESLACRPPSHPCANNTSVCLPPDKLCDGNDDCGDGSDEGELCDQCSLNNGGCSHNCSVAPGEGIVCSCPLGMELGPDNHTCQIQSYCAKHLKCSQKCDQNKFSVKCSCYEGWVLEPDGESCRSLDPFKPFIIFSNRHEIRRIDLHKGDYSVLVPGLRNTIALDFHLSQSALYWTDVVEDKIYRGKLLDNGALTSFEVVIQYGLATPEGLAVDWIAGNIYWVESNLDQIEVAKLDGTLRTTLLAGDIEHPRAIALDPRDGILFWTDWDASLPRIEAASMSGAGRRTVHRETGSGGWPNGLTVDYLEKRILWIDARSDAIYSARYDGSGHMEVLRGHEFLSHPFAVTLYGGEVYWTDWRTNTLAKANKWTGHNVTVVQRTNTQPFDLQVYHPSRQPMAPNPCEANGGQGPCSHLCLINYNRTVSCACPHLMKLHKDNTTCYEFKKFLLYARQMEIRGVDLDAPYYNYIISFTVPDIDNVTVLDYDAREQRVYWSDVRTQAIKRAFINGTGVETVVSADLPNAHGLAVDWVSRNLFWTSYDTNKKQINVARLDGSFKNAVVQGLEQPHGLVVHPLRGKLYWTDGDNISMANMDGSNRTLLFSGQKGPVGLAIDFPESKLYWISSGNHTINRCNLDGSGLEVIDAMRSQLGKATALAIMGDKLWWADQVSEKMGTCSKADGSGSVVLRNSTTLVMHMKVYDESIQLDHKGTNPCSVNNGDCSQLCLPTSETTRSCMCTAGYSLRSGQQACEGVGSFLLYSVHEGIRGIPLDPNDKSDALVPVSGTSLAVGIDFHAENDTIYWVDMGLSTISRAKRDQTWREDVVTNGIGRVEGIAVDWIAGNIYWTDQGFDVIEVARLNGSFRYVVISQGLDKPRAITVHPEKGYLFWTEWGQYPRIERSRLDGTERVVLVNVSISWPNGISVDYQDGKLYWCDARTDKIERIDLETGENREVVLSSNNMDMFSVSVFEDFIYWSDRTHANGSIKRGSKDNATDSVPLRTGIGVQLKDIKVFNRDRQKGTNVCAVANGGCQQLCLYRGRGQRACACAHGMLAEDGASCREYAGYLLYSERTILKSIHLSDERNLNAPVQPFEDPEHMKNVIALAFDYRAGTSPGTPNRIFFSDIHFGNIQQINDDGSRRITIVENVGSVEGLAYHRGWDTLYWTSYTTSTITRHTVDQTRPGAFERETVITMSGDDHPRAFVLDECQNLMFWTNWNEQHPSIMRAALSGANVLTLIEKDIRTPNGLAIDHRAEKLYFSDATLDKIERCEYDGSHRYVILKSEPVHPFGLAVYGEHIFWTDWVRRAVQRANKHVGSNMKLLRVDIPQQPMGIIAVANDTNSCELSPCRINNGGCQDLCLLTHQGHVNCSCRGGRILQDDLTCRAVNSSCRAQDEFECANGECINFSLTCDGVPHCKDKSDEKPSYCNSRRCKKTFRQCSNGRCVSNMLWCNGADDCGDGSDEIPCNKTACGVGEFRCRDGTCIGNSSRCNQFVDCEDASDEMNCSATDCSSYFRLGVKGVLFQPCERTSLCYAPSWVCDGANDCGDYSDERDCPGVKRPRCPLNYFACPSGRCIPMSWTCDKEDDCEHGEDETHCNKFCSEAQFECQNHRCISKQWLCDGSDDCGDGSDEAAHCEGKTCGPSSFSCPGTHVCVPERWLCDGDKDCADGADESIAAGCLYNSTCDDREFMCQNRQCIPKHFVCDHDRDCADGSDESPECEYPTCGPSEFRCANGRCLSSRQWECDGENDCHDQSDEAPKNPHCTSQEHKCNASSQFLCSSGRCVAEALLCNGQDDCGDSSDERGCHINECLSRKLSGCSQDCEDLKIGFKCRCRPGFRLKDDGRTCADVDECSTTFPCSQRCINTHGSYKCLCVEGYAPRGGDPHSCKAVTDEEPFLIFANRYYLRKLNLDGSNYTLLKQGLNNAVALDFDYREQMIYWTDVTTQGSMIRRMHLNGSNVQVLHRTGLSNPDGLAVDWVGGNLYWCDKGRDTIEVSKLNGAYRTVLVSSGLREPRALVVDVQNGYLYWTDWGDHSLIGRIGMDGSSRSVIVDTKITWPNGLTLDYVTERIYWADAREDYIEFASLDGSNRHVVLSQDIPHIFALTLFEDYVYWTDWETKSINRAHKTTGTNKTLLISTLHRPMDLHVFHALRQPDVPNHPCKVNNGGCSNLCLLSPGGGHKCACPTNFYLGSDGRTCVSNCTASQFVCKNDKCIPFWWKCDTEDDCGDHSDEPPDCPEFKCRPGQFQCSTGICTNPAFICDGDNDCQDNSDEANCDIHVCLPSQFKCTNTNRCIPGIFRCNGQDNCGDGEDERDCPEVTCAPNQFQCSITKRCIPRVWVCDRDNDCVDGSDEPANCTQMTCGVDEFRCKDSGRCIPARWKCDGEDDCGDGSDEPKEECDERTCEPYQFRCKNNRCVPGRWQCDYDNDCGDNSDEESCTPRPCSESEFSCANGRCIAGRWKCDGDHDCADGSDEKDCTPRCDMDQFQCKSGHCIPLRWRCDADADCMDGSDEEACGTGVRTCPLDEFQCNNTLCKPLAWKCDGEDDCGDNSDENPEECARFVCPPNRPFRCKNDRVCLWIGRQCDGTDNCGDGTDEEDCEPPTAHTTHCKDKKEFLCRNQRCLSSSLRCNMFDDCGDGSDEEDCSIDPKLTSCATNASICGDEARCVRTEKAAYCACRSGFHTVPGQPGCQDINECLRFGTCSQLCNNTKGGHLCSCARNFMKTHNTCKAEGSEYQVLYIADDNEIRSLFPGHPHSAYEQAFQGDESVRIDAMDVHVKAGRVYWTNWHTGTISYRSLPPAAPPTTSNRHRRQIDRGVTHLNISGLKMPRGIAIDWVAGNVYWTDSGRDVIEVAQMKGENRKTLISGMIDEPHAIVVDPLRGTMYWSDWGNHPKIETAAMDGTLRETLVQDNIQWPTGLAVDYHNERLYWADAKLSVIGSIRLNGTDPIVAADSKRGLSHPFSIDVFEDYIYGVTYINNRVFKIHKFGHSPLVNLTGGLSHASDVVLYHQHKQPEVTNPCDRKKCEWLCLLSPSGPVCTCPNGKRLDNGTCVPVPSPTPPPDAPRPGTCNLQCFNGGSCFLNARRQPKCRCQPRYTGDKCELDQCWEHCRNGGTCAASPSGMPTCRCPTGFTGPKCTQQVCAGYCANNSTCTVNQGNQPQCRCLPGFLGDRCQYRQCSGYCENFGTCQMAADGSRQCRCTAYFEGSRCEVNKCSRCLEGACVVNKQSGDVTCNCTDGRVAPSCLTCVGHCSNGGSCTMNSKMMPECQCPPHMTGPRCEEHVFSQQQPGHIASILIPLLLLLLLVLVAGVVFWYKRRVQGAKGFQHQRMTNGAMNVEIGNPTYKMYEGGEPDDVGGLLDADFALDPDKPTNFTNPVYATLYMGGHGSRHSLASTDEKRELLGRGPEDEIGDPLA

[2] = target: Purified placenta-derived low-density lipoprotein receptor-related protein (LRP) (UniProt Q07954); experiment: SPR, immobilised LRP, two-site model, site class 2
[3] = target: Purified placenta-derived low-density lipoprotein receptor-related protein (LRP) (UniProt Q07954); experiment: SPR, immobilised LRP, steady-state affinity analysis
[4] = target: B2; experiment: solid-phase competition: peptide against FVIII light chain (25 nM) binding to immobilised LRP cluster II
Experimental: (§1) Solid-phase Binding Assays—Recombinant LRP clusters II or IV (1 pmol/well) were adsorbed onto microtiter wells in 50 mM NaHCO₃ (pH 9.8) in a volume of 50 μl for 16 h at 4° C. Wells were blocked with 2% (w/v) HSA, 150 mM NaCl, 5 mM CaCl₂, and 50 mM Tris (pH 7.4) in a volume of 200 μl for 1 h at 37° C. […] Bound ligand was detected by incubating with peroxidase-conjugated monoclonal antibody CLB-CAg 12 in the same buffer for 15 min at 37° C. […] Residual FVIII binding was detected as described above.
Half-maximum inhibition constants (IC₅₀) represent the mean values ±S.D. of three experiments.)

[5] = target: B2; experiment: solid-phase binding assay: serial dilutions of FVIII light chain on immobilised LRP cluster II (1 pmol/well); detection with peroxidase-conjugated CLB-CAg 12
Experimental: FIG. 2. […] Data represent the mean ±S.D. of three experiments
as §1

[6] = target: T1, Factor Va light chain (human, UniProt P12259 1574-2224); experiment: SPR (BIAcore), FVa light chain immobilised at 76 fmol/mm2, LRP cluster II 100 nM as analyte
T1 construct: domain: FVa light chain; also called FVa light chain
T1 sequence (looked up): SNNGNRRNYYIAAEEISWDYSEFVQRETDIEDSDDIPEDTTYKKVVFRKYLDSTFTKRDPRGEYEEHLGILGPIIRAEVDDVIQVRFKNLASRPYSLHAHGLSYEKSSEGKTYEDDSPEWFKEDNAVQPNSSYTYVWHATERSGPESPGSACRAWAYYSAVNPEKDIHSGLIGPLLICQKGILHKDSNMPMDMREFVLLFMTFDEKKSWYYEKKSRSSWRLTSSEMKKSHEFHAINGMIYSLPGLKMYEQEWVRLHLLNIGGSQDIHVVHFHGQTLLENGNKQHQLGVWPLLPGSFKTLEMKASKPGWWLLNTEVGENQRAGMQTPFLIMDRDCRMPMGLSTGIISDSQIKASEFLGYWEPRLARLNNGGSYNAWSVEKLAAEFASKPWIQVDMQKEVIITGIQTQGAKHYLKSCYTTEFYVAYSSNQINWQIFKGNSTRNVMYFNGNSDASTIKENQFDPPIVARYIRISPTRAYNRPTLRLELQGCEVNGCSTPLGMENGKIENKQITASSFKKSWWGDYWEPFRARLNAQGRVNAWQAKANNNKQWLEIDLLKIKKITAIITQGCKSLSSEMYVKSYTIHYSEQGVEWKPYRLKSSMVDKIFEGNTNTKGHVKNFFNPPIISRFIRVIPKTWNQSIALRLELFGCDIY
Experimental: Response is indicated as Resonance Units (RU) and is corrected for nonspecific binding, which was less than 5% relative to coated channels.
(§2) Surface Plasmon Resonance—The kinetics of protein interactions was determined by surface plasmon resonance (SPR) analysis, employing a BIAcore™2000 biosensor system (Biacore AS, Uppsala, Sweden). […] One control flow-channel was routinely activated and blocked in the absence of protein. […] Dissociation was allowed for 2 min in the same buffer flow. Sensor-chips were regenerated using several pulses of either 100 mM H₃PO₄ or 20 mM EDTA, 1 M NaCl, and 50 mM Hepes (pH 7.4) at a flow rate of 20 μl/min. The association (kₒₙ) and dissociation (koff) rate constants were determined by using the BIAevaluation software 3.1 (Biacore AB, Uppsala, Sweden). Data were corrected for bulk refractive index changes and fitted by nonlinear regression analysis according to a two-site binding model. Equilibrium dissociation constants (kd) were calculated from the ratio koff/kₒₙ. The kd value for low-affinity interactions was estimated using steady-state affinity analysis by using BIAevaluation software.

[7] = target: T2, Recombinant FVIII/FV^1811-1818 light chain chimera (UniProt P00451 1668-2351); experiment: SPR (BIAcore), FVIII/FV1811-1818 light chain chimera captured at 20 fmol/mm2 on immobilised scFv EL14, scFv KM41 40 nM as analyte
T2 construct: domain: light chain (a3-A3-C1-C2); The single substitutions were worked out from the two printed octapeptides; In the assays it was captured on immobilised scFv EL14
T2 sequence: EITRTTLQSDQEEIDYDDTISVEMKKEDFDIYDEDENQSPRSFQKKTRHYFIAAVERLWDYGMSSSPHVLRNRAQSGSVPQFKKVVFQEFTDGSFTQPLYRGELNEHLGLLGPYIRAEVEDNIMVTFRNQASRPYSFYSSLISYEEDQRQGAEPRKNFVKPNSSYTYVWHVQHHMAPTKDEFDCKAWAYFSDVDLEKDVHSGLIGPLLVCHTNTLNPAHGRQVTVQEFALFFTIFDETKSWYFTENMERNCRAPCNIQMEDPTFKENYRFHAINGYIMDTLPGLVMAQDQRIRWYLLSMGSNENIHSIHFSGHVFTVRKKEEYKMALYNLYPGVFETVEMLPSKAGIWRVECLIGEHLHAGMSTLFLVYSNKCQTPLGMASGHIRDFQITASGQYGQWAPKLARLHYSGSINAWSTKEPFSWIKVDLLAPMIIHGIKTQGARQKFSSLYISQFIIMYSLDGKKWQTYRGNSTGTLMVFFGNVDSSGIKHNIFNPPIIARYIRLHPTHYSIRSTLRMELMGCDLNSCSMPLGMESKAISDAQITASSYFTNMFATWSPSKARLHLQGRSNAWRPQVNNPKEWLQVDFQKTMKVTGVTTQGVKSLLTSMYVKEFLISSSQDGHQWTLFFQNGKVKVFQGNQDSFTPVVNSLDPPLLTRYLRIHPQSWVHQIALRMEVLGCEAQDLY
Experimental: Response is indicated as Resonance Units (RU) and is corrected for nonspecific binding.
as §2

[8] = target: B1; experiment: solid-phase competition assay: FVIII light chain (25 nM) on immobilised LRP cluster II (1 pmol/well) in the presence of scFv KM41 (0-100 nM); detection with peroxidase-conjugated CLB-CAg 12
Experimental: FIG. 4. […] Data represent the mean ±S.D. of three experiments. […] Complexes were allowed to form for 30 min before SPR analysis.
as §1

Kd [1]: 22 nM | koff [1]: 0.003 s⁻¹ | kon [1]: 130000 M⁻¹ s⁻¹ | Kd [2]: 60 nM | koff [2]: 0.056 s⁻¹ | kon [2]: 900000 M⁻¹ s⁻¹
Molecule: Factor Xa-cleaved FVIII light chain (from UniProt P00451 1741-2351)

Kd [3]: 3400 nM
Molecule: Recombinant FVIII C2 domain (from UniProt P00451 2192-2351)

Kd [1]: 26 nM | koff [1]: 0.0041 s⁻¹ | kon [1]: 160000 M⁻¹ s⁻¹ | Kd [2]: 74 nM | koff [2]: 0.08 s⁻¹ | kon [2]: 1.1e+06 M⁻¹ s⁻¹
Molecule: Recombinant FVIII a3-A3-C1 fragment (from UniProt P00451 1668-2191)

IC50 [4]: 16800 nM
Molecule: YFWKVQHHMAPTKDEFDCKA [Synthetic peptide FVIII Tyr^1815-Ala^1834]

IC50 [4]: 1900 nM
Molecule: KNFVKPNETKTYFWK [Synthetic peptide FVIII Lys^1804-Lys^1818]

Molecule: B1
Kd [1]: 18 nM | Kd [2]: 59 nM | EC50 (read off the curve) [5]: ~20 nM

Molecule: B2
binding result [6]: no binding (tested: 100 nM)

IC50 [4]: 900000 nM
Molecule: DGKKWQTYRG (also called 2108-2117) [Synthetic peptide FVIII Asp^2108-Gly^2117]

binding result [7]: no binding (tested: 40 nM) | IC50 (read off the curve) [8]: ~7 nM
B3: scFv KM41 (scFv)
scFv: QVQLLQSAADVKKPGASVKVSCTASGYIFTSYDIDWVRQATGQGLEWMGWMNPNSGNAGFAQKFKGRLTLTRDTSTSTAYMELRRLESEDTAVYYCARSTPHSYSGSGLPPTSDSWGQGTLVTVSSGGGGSGGGGSGGGGSEIVLTQSPGTLSLSPGERATLSCRASQSVSSSFLGWYQQKPGQAPRLLIYGASSRATGIPDRFSGSGSGTDFTLTISRLEPEDFAVYYCQQYGISPLTFGGGTKLEIKRAAAEQKLISEEDLNGAAHHHHHH
notes: Expressed in E. coli TG1
